In patent US20030135878:
Residue numbers refer to the chain shown, from its start.

What was measured:
[1] = target: wheat gliadin homolog of oat avenin (spot #2)
[2] = target: T1, Wheat alpha-amylase/trypsin inhibitor (spot #3), P16851
T1 chain: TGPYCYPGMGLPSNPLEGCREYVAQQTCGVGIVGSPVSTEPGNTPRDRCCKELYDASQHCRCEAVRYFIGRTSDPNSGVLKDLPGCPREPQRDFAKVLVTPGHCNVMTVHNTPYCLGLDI

[3] = target: T2, Wheat alpha-amylase pI 5.23 inhibitor (spot #4), P01084
T2 chain: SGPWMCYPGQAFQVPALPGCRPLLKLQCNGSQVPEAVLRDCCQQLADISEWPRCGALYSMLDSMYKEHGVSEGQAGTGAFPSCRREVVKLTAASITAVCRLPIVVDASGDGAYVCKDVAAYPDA

[4] = target: T3, Wheat alpha-amylase pI 6.66 inhibitor (spot #1), P01085
T3 chain: T2 chain with G19A, K25R, D47H, P52C, V70A, S71Q, S82R

B1: wheat thioredoxin h (WTRXh), 13.5-kDa protein encoded by the 384-bp wtrxh fragment (protein)
chain: MAASAATATATAAAVGAGEVISVHSLEQWTMQIEEANAAKKLVVIDFTASWCGPCRIMAPIFADLAKKFPAAVFLKVDVDELKPIAEQFSVEAMPTFLFMKEGDVKDRVVGAIKEELTTKVGLHAAQ
With B1 the “redox state by mBBr/2D IEF/SDS-PAGE, homozygote overexpressing thioredoxin h vs. null segregant” value [1] was “five proteins were observed to be more highly reduced in extracts of the homozygote (spots 1-5, FIG. 29)”, the “redox state by mBBr/2D IEF/SDS-PAGE, homozygote overexpressing thioredoxin h vs. null segregant” value [2] was “five proteins were observed to be more highly reduced in extracts of the homozygote (spots 1-5, FIG. 29)” and the “redox state by mBBr/2D IEF/SDS-PAGE, homozygote overexpressing thioredoxin h vs. null segregant” value [3] was “five proteins were observed to be more highly reduced in extracts of the homozygote (spots 1-5, FIG. 29)”. For the same protein, the “redox state by mBBr/2D IEF/SDS-PAGE, homozygote overexpressing thioredoxin h vs. null segregant” value [4] was “five proteins were observed to be more highly reduced in extracts of the homozygote (spots 1-5, FIG. 29)”.
